In IntAct's records for PubMed 35512704:

B1: Speckle-type POZ protein (Homo sapiens), O43791 (parent)
chain: MSRVPSPPPPAEMSSGPVAESWCYTQIKVVKFSYMWTINNFSFCREEMGEVIKSSTFSSGANDKLKWCLRVNPKGLDEESKDYLSLYLLLVSCPKSEVRAKFKFSILNAKGEETKAMESQRAYRFVQGKDWGFKKFIRRDFLLDEANGLLPDDKLTLFCEVSVVQDSVNISGQNTMNMVKVPECRLADELGGLWENSRFTDCCLCVAGQEFQAHKAILAARSPVFSAMFEHEMEESKKNRVEINDVEPEVFKEMMCFIYTGKAPNLDKMADDLLAAADKYALERLKVMCEDALCSNLSVENAAEILILADLHSADQLKTQAVDFINYHASDVLETSGWKSMVVSHPHLVAEAYRSLASAQCPFLGPPRKRLKQS

Variants of: B1
Conditions: with pk3cg_human PIK3CG

For MSRVPSPPPPAEMSSGPVAESWCYTQIKVVKFSYMWTINNFSFCREEMGEVIKSSTFSSGANDKLKWCLRVNPKGLDEESKDYLSLYLLLVSCPKSEVRAKFKFSILNAKGEETKAMESQRAYRFVQGKDWGVKKFIRRDFLLDEANGLLPDDKLTLFCEVSVVQDSVNISGQNTMNMVKVPECRLADELGGLWENSRFTDCCLCVAGQEFQAHKAILAARSPVFSAMFEHEMEESKKNRVEINDVEPEVFKEMMCFIYTGKAPNLDKMADDLLAAADKYALERLKVMCEDALCSNLSVENAAEILILADLHSADQLKTQAVDFINYHASDVLETSGWKSMVVSHPHLVAEAYRSLASAQCPFLGPPRKRLKQS [F133V], which “effect of a mutation on the interaction” value is on record?
The value was “with no effect”.

Variants of: B1
Conditions: with p85b_human PIK3R2, O00459

MSRVPSPPPPAEMSSGPVAESWCYTQIKVVKFSYMWTINNFSFCREEMGEVIKSSTFSSGANDKLKWCLRVNPKGLDEESKDYLSLYLLLVSCPKSEVRAKFKFSILNAKGEETKAMESQRAYRFVQGKDWGVKKFIRRDFLLDEANGLLPDDKLTLFCEVSVVQDSVNISGQNTMNMVKVPECRLADELGGLWENSRFTDCCLCVAGQEFQAHKAILAARSPVFSAMFEHEMEESKKNRVEINDVEPEVFKEMMCFIYTGKAPNLDKMADDLLAAADKYALERLKVMCEDALCSNLSVENAAEILILADLHSADQLKTQAVDFINYHASDVLETSGWKSMVVSHPHLVAEAYRSLASAQCPFLGPPRKRLKQS [F133V] was tested. Which “effect of a mutation on the interaction” value did it give?
Its value is “with no effect”.

Variants of: B1
Conditions: with dpod1_human POLD1, P28340
dpod1_human POLD1, P28340, sequence (P28340 whole entry): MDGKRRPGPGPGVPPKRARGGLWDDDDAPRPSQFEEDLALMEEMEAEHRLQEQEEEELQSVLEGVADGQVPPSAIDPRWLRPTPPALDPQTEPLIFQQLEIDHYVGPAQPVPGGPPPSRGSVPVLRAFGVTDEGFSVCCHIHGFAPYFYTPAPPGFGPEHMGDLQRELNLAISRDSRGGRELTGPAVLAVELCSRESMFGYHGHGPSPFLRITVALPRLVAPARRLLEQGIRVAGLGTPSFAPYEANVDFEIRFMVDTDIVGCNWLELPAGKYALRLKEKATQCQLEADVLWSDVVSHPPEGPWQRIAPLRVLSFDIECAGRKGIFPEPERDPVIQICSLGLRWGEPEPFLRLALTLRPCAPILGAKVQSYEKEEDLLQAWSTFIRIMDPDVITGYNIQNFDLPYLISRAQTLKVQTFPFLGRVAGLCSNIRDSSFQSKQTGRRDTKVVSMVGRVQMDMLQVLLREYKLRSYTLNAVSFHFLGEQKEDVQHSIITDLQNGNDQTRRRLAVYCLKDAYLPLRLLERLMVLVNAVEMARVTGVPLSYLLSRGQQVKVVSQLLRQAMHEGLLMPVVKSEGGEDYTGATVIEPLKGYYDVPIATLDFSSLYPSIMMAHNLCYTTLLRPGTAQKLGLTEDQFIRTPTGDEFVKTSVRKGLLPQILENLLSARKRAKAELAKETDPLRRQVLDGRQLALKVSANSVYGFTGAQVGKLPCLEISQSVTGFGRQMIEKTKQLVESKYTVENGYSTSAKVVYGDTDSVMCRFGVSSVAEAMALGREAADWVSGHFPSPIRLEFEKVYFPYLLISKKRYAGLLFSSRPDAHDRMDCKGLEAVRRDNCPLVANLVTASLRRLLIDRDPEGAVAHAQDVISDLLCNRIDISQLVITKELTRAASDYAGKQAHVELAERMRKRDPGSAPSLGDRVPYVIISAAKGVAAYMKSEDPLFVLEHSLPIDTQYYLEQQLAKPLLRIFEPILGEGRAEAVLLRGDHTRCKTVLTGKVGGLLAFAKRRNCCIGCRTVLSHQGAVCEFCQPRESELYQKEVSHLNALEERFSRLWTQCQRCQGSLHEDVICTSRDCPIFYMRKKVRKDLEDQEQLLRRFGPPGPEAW

Which “effect of a mutation on the interaction” value does the source give for MSRVPSPPPPAEMSSGPVAESWCYTQIKVVKFSYMWTINNFSFCREEMGEVIKSSTFSSGANDKLKWCLRVNPKGLDEESKDYLSLYLLLVSCPKSEVRAKFKFSILNAKGEETKAMESQRAYRFVQGKDWGVKKFIRRDFLLDEANGLLPDDKLTLFCEVSVVQDSVNISGQNTMNMVKVPECRLADELGGLWENSRFTDCCLCVAGQEFQAHKAILAARSPVFSAMFEHEMEESKKNRVEINDVEPEVFKEMMCFIYTGKAPNLDKMADDLLAAADKYALERLKVMCEDALCSNLSVENAAEILILADLHSADQLKTQAVDFINYHASDVLETSGWKSMVVSHPHLVAEAYRSLASAQCPFLGPPRKRLKQS [F133V] here?
Its value is “with no effect”.

Variants of: B1
Conditions: with dpoe1_human POLE

How did the “effect of a mutation on the interaction” value turn out when MSRVPSPPPPAEMSSGPVAESWCYTQIKVVKFSYMWTINNFSFCREEMGEVIKSSTFSSGANDKLKWCLRVNPKGLDEESKDYLSLYLLLVSCPKSEVRAKFKFSILNAKGEETKAMESQRAYRFVQGKDWGVKKFIRRDFLLDEANGLLPDDKLTLFCEVSVVQDSVNISGQNTMNMVKVPECRLADELGGLWENSRFTDCCLCVAGQEFQAHKAILAARSPVFSAMFEHEMEESKKNRVEINDVEPEVFKEMMCFIYTGKAPNLDKMADDLLAAADKYALERLKVMCEDALCSNLSVENAAEILILADLHSADQLKTQAVDFINYHASDVLETSGWKSMVVSHPHLVAEAYRSLASAQCPFLGPPRKRLKQS [F133V] was run?
The value was “with no effect”.

Variants of: B1
Conditions: with ppard_human PPARD

How did the “effect of a mutation on the interaction” value turn out when MSRVPSPPPPAEMSSGPVAESWCYTQIKVVKFSYMWTINNFSFCREEMGEVIKSSTFSSGANDKLKWCLRVNPKGLDEESKDYLSLYLLLVSCPKSEVRAKFKFSILNAKGEETKAMESQRAYRFVQGKDWGVKKFIRRDFLLDEANGLLPDDKLTLFCEVSVVQDSVNISGQNTMNMVKVPECRLADELGGLWENSRFTDCCLCVAGQEFQAHKAILAARSPVFSAMFEHEMEESKKNRVEINDVEPEVFKEMMCFIYTGKAPNLDKMADDLLAAADKYALERLKVMCEDALCSNLSVENAAEILILADLHSADQLKTQAVDFINYHASDVLETSGWKSMVVSHPHLVAEAYRSLASAQCPFLGPPRKRLKQS [F133V] was run?
The value was “with no effect”.

Variants of: B1
Conditions: with prdm1_human PRDM1, O75626

For MSRVPSPPPPAEMSSGPVAESWCYTQIKVVKFSYMWTINNFSFCREEMGEVIKSSTFSSGANDKLKWCLRVNPKGLDEESKDYLSLYLLLVSCPKSEVRAKFKFSILNAKGEETKAMESQRAYRFVQGKDWGVKKFIRRDFLLDEANGLLPDDKLTLFCEVSVVQDSVNISGQNTMNMVKVPECRLADELGGLWENSRFTDCCLCVAGQEFQAHKAILAARSPVFSAMFEHEMEESKKNRVEINDVEPEVFKEMMCFIYTGKAPNLDKMADDLLAAADKYALERLKVMCEDALCSNLSVENAAEILILADLHSADQLKTQAVDFINYHASDVLETSGWKSMVVSHPHLVAEAYRSLASAQCPFLGPPRKRLKQS [F133V], which “effect of a mutation on the interaction” value is on record?
Its value is “with no effect”.

Variants of: B1
Conditions: with prex2_human PREX2, Q70Z35

How did the “effect of a mutation on the interaction” value turn out when MSRVPSPPPPAEMSSGPVAESWCYTQIKVVKFSYMWTINNFSFCREEMGEVIKSSTFSSGANDKLKWCLRVNPKGLDEESKDYLSLYLLLVSCPKSEVRAKFKFSILNAKGEETKAMESQRAYRFVQGKDWGVKKFIRRDFLLDEANGLLPDDKLTLFCEVSVVQDSVNISGQNTMNMVKVPECRLADELGGLWENSRFTDCCLCVAGQEFQAHKAILAARSPVFSAMFEHEMEESKKNRVEINDVEPEVFKEMMCFIYTGKAPNLDKMADDLLAAADKYALERLKVMCEDALCSNLSVENAAEILILADLHSADQLKTQAVDFINYHASDVLETSGWKSMVVSHPHLVAEAYRSLASAQCPFLGPPRKRLKQS [F133V] was run?
The value was “with no effect”.

Variants of: B1
Conditions: with aapk2_human PRKAA2, P54646
aapk2_human PRKAA2, P54646, sequence (P54646 whole entry, looked up): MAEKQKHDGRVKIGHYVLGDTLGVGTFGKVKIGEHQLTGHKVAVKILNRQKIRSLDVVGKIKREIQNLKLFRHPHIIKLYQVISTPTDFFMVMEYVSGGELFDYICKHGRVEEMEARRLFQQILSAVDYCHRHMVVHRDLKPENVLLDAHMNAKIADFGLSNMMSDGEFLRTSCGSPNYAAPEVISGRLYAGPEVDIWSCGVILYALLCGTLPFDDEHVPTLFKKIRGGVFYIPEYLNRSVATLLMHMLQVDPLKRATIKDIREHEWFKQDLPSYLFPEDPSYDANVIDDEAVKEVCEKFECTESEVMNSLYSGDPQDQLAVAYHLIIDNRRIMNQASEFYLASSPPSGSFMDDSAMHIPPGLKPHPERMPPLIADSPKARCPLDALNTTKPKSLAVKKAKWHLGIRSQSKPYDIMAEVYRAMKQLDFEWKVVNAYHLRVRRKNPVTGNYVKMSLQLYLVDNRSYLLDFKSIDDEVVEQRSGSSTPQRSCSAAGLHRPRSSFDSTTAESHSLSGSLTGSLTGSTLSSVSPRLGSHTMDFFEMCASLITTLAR

Which “effect of a mutation on the interaction” value does the source give for MSRVPSPPPPAEMSSGPVAESWCYTQIKVVKFSYMWTINNFSFCREEMGEVIKSSTFSSGANDKLKWCLRVNPKGLDEESKDYLSLYLLLVSCPKSEVRAKFKFSILNAKGEETKAMESQRAYRFVQGKDWGVKKFIRRDFLLDEANGLLPDDKLTLFCEVSVVQDSVNISGQNTMNMVKVPECRLADELGGLWENSRFTDCCLCVAGQEFQAHKAILAARSPVFSAMFEHEMEESKKNRVEINDVEPEVFKEMMCFIYTGKAPNLDKMADDLLAAADKYALERLKVMCEDALCSNLSVENAAEILILADLHSADQLKTQAVDFINYHASDVLETSGWKSMVVSHPHLVAEAYRSLASAQCPFLGPPRKRLKQS [F133V] here?
The value was “with no effect”.

Variants of: B1
Conditions: with prss8_human PRSS8, Q16651

For MSRVPSPPPPAEMSSGPVAESWCYTQIKVVKFSYMWTINNFSFCREEMGEVIKSSTFSSGANDKLKWCLRVNPKGLDEESKDYLSLYLLLVSCPKSEVRAKFKFSILNAKGEETKAMESQRAYRFVQGKDWGVKKFIRRDFLLDEANGLLPDDKLTLFCEVSVVQDSVNISGQNTMNMVKVPECRLADELGGLWENSRFTDCCLCVAGQEFQAHKAILAARSPVFSAMFEHEMEESKKNRVEINDVEPEVFKEMMCFIYTGKAPNLDKMADDLLAAADKYALERLKVMCEDALCSNLSVENAAEILILADLHSADQLKTQAVDFINYHASDVLETSGWKSMVVSHPHLVAEAYRSLASAQCPFLGPPRKRLKQS [F133V], which “effect of a mutation on the interaction” value is on record?
Its value is “with no effect”.

Variants of: B1
Conditions: with ptk6_human PTK6, Q13882

How did the “effect of a mutation on the interaction” value turn out when MSRVPSPPPPAEMSSGPVAESWCYTQIKVVKFSYMWTINNFSFCREEMGEVIKSSTFSSGANDKLKWCLRVNPKGLDEESKDYLSLYLLLVSCPKSEVRAKFKFSILNAKGEETKAMESQRAYRFVQGKDWGVKKFIRRDFLLDEANGLLPDDKLTLFCEVSVVQDSVNISGQNTMNMVKVPECRLADELGGLWENSRFTDCCLCVAGQEFQAHKAILAARSPVFSAMFEHEMEESKKNRVEINDVEPEVFKEMMCFIYTGKAPNLDKMADDLLAAADKYALERLKVMCEDALCSNLSVENAAEILILADLHSADQLKTQAVDFINYHASDVLETSGWKSMVVSHPHLVAEAYRSLASAQCPFLGPPRKRLKQS [F133V] was run?
The value was “with no effect”.

Variants of: B1
Conditions: with tf65_human RELA

For MSRVPSPPPPAEMSSGPVAESWCYTQIKVVKFSYMWTINNFSFCREEMGEVIKSSTFSSGANDKLKWCLRVNPKGLDEESKDYLSLYLLLVSCPKSEVRAKFKFSILNAKGEETKAMESQRAYRFVQGKDWGVKKFIRRDFLLDEANGLLPDDKLTLFCEVSVVQDSVNISGQNTMNMVKVPECRLADELGGLWENSRFTDCCLCVAGQEFQAHKAILAARSPVFSAMFEHEMEESKKNRVEINDVEPEVFKEMMCFIYTGKAPNLDKMADDLLAAADKYALERLKVMCEDALCSNLSVENAAEILILADLHSADQLKTQAVDFINYHASDVLETSGWKSMVVSHPHLVAEAYRSLASAQCPFLGPPRKRLKQS [F133V], which “effect of a mutation on the interaction” value is on record?
The value was “with no effect”.

Variants of: B1
Conditions: with rictr_human RICTOR

Which “effect of a mutation on the interaction” value does the source give for MSRVPSPPPPAEMSSGPVAESWCYTQIKVVKFSYMWTINNFSFCREEMGEVIKSSTFSSGANDKLKWCLRVNPKGLDEESKDYLSLYLLLVSCPKSEVRAKFKFSILNAKGEETKAMESQRAYRFVQGKDWGVKKFIRRDFLLDEANGLLPDDKLTLFCEVSVVQDSVNISGQNTMNMVKVPECRLADELGGLWENSRFTDCCLCVAGQEFQAHKAILAARSPVFSAMFEHEMEESKKNRVEINDVEPEVFKEMMCFIYTGKAPNLDKMADDLLAAADKYALERLKVMCEDALCSNLSVENAAEILILADLHSADQLKTQAVDFINYHASDVLETSGWKSMVVSHPHLVAEAYRSLASAQCPFLGPPRKRLKQS [F133V] here?
The value was “with no effect”.

Variants of: B1
Conditions: with rnf43_human RNF43, Q68DV7
rnf43_human RNF43, Q68DV7, sequence (Q68DV7 whole entry): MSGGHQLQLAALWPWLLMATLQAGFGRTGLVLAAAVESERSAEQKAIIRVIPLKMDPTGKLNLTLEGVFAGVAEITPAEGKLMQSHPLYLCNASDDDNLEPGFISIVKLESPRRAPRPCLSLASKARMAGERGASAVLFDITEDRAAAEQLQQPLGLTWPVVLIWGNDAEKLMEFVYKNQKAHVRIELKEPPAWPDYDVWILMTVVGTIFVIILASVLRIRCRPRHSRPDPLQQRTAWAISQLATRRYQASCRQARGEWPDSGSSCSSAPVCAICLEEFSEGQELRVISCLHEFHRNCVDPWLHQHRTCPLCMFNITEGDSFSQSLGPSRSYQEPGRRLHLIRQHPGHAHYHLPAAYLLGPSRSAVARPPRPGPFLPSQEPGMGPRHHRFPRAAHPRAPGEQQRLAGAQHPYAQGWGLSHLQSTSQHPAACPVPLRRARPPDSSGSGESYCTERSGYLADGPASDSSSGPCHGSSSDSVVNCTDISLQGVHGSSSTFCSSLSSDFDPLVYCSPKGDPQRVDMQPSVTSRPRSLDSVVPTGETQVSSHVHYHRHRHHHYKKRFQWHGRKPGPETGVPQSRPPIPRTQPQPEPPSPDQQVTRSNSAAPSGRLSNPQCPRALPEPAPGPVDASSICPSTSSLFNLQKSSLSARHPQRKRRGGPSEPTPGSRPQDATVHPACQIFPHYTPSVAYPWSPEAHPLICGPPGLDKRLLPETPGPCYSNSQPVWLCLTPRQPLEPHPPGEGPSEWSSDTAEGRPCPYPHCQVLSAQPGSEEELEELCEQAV

With MSRVPSPPPPAEMSSGPVAESWCYTQIKVVKFSYMWTINNFSFCREEMGEVIKSSTFSSGANDKLKWCLRVNPKGLDEESKDYLSLYLLLVSCPKSEVRAKFKFSILNAKGEETKAMESQRAYRFVQGKDWGVKKFIRRDFLLDEANGLLPDDKLTLFCEVSVVQDSVNISGQNTMNMVKVPECRLADELGGLWENSRFTDCCLCVAGQEFQAHKAILAARSPVFSAMFEHEMEESKKNRVEINDVEPEVFKEMMCFIYTGKAPNLDKMADDLLAAADKYALERLKVMCEDALCSNLSVENAAEILILADLHSADQLKTQAVDFINYHASDVLETSGWKSMVVSHPHLVAEAYRSLASAQCPFLGPPRKRLKQS [F133V] as the variant, how does the “effect of a mutation on the interaction” value read?
Its value is “with no effect”.

Variants of: B1
Conditions: with ros1_human ROS1, P08922
ros1_human ROS1, P08922, sequence (P08922 whole entry): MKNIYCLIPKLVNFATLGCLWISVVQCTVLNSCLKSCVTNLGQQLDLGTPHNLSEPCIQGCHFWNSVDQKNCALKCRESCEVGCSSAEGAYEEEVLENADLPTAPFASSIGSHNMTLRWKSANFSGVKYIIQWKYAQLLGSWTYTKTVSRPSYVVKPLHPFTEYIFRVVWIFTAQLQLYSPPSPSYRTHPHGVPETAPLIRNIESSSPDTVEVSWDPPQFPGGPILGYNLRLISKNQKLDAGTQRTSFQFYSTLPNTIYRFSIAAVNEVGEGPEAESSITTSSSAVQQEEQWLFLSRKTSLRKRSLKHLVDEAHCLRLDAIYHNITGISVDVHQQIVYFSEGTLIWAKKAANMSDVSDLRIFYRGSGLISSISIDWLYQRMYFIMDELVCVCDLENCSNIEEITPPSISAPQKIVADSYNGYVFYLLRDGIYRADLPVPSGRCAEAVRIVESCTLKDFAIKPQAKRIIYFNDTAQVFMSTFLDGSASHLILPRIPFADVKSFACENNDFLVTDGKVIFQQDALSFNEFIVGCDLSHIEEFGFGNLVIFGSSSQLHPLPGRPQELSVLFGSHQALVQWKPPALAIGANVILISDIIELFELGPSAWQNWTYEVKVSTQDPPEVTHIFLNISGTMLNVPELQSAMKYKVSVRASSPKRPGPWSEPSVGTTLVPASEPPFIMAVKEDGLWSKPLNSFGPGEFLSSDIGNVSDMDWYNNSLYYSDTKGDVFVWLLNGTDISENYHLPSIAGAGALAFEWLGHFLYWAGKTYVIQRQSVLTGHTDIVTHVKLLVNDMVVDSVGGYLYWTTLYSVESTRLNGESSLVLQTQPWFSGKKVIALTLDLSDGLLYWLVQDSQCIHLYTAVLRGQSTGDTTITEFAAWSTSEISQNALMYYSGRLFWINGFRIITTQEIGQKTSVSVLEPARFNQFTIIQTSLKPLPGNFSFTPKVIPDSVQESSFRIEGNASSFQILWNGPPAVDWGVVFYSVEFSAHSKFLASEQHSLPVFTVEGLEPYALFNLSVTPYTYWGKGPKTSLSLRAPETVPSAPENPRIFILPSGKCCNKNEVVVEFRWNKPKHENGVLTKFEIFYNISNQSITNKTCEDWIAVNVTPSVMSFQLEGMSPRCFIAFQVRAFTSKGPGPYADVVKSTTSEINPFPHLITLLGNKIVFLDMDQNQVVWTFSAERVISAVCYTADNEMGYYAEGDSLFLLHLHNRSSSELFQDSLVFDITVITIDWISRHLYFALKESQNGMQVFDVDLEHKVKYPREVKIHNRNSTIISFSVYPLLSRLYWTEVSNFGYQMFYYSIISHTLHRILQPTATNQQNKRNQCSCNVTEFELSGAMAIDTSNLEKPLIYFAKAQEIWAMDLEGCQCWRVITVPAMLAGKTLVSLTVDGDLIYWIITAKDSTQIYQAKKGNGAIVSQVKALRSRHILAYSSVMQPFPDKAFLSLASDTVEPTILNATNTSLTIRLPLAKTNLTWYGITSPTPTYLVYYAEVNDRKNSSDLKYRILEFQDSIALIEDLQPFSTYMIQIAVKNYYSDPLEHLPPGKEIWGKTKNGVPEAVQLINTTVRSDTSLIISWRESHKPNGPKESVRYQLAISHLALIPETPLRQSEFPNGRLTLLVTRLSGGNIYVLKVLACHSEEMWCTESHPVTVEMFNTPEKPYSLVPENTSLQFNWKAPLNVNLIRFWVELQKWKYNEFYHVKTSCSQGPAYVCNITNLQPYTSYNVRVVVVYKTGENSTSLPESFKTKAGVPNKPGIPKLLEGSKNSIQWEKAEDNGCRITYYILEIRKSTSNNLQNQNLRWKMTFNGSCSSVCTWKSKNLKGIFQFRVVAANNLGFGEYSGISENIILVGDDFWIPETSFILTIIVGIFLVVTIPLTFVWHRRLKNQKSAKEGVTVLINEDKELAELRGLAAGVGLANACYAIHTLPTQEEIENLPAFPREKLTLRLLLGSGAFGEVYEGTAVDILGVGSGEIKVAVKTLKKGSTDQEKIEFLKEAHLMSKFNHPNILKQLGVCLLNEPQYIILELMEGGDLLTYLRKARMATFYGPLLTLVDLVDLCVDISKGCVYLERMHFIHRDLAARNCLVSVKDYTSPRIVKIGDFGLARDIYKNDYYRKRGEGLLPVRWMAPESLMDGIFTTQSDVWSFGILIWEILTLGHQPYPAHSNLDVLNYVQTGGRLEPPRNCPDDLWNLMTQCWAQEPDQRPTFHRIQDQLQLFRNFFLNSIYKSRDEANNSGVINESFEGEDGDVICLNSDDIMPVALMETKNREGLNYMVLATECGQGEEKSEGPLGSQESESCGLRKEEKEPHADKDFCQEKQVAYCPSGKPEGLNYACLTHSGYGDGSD

How did the “effect of a mutation on the interaction” value turn out when MSRVPSPPPPAEMSSGPVAESWCYTQIKVVKFSYMWTINNFSFCREEMGEVIKSSTFSSGANDKLKWCLRVNPKGLDEESKDYLSLYLLLVSCPKSEVRAKFKFSILNAKGEETKAMESQRAYRFVQGKDWGVKKFIRRDFLLDEANGLLPDDKLTLFCEVSVVQDSVNISGQNTMNMVKVPECRLADELGGLWENSRFTDCCLCVAGQEFQAHKAILAARSPVFSAMFEHEMEESKKNRVEINDVEPEVFKEMMCFIYTGKAPNLDKMADDLLAAADKYALERLKVMCEDALCSNLSVENAAEILILADLHSADQLKTQAVDFINYHASDVLETSGWKSMVVSHPHLVAEAYRSLASAQCPFLGPPRKRLKQS [F133V] was run?
Its value is “with no effect”.

Variants of: B1
Conditions: with rl11_human RPL11, P62913

MSRVPSPPPPAEMSSGPVAESWCYTQIKVVKFSYMWTINNFSFCREEMGEVIKSSTFSSGANDKLKWCLRVNPKGLDEESKDYLSLYLLLVSCPKSEVRAKFKFSILNAKGEETKAMESQRAYRFVQGKDWGVKKFIRRDFLLDEANGLLPDDKLTLFCEVSVVQDSVNISGQNTMNMVKVPECRLADELGGLWENSRFTDCCLCVAGQEFQAHKAILAARSPVFSAMFEHEMEESKKNRVEINDVEPEVFKEMMCFIYTGKAPNLDKMADDLLAAADKYALERLKVMCEDALCSNLSVENAAEILILADLHSADQLKTQAVDFINYHASDVLETSGWKSMVVSHPHLVAEAYRSLASAQCPFLGPPRKRLKQS [F133V] was tested. Which “effect of a mutation on the interaction” value did it give?
The value was “with no effect”.
